In series [1] the target is T1, GCM N243 (MBP fusion) (Drosophila, UniProt Q27403 SEQ:1-243).
T1 chain: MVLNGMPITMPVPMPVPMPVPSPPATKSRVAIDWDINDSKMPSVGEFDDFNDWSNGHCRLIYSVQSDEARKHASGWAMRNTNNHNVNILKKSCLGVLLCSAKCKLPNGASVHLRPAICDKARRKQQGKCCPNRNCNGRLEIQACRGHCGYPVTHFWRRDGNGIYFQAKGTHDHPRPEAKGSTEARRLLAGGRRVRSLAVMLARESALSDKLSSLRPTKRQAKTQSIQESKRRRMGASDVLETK
The series can be described thus: competition; no competition. The conditions noted are these: tags: MBP fusion (pMAL, E. coli).

Series [2] has as its target T2, hGCMa N-terminal fragment (Homo sapiens, UniProt Q9NP62 SEQ:1-171).
T2 chain: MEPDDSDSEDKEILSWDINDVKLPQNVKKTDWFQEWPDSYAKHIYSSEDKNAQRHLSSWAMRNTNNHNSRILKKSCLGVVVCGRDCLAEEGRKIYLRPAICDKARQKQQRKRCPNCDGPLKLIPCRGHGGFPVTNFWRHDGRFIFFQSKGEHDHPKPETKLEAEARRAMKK
The series can be described thus: competition; results stated similar to those of GCM. As to the method: Gel shift assays and competition assays were carried out in the same manner as above by using proteins obtained by causing expression of DNA fragments of up to the 171-st amino acid residue of hGCMa, giving results similar to those of GCM.

For series [3], the target named is T1, GCM N243 (MBP fusion). The series can be described thus: competition; dose-dependent competition of labeled 200 bp repo fragment, 1-1000x. The following applies: tags: MBP fusion (pMAL, E. coli).

B1: competitor b without GCM site (dsDNA)
DNA 1: TGTGTGGAATTGTGAGCGGATATACTAATTTGTTAGGTTTTCCCAGTCACGACG
DNA 2: CGTCGTGACTGGGAAAACCTAACAAATTAGTATATCCGCTCACAATTCCACACA
For B1, the binding result (with GCM N243 (MBP fusion) [1]; in series [2]) was “no binding” in each case.

B2: competitor a with GCM site (dsDNA)
DNA 1: TGTGTGGAATTGTGAGCGGACCTACCCGCATTACGGGTTTTCCCAGTCACGACG
DNA 2: CGTCGTGACTGGGAAAACCCGTAATGCGGGTAGGTCCGCTCACAATTCCACACA
B2: the binding result (in series [2]; with GCM N243 (MBP fusion) [3]) was “binds” in each case.

Source of the values: patent publication US20020081718, “POLYPEPTIDE, AND A DNA SEQUENCE TO WHICH A PROTEIN CONTAINING THE POLYPETIDE BINDS” (published 2002).
